From patent publication US20200017851A1

Experiments:
mesothelin (MSLN) [1] = molecular target: mesothelin (MSLN) (UniProt Q13421); test: virus binding to Panc-1 cells (MSLN strongly-positive), 4 C, E4 qPCR; reference AdMG553 (Ad5/Ad3 fiber)
mesothelin (MSLN) [2] = molecular target: mesothelin (MSLN) (UniProt Q13421); test: virus binding to Panc-1 cells (MSLN strongly-positive), 4 C, E4 qPCR; reference AdML-5WT (native Ad5 fiber)

AdML-VTIN (isolated adenovirus with the VTINRSA (SEQ ID NO:12) motif in the AB-loop of the fiber knob) (from UniProt P11818 1-410; P11818 418-581)
fold binding ability against AdMG553 (mesothelin (MSLN) [1]): 2 fold | fold binding ability against AdML-5WT (mesothelin (MSLN) [2]): 5 fold
